Target: FvMYB1-GST (woodland strawberry (Fragaria vesca))
Test: pull-down; FvSTOP1-His and FvbHLH33-His incubated together with FvMYB1-GST; detection with anti-His, bands quantified with ImageJ against the incubation alone

binding strength with FvbHLH33-His present, against incubation alone (ImageJ) [times] | binding strength with FvSTOP1-His present, against incubation alone (ImageJ) [times] | Substance
0.31 | – | FvSTOP1-His (natural protein)
– | 0.54 | FvbHLH33-His (natural protein)
